Measured values from patent US20040014721A1, “Method for using tethered bis(polyhydroxyphenyls) and O-alkyl derivatives thereof in treating inflammatory conditions of the central nervous system” (Oklahoma Medical Research Foundation, priority 2002, published 2004).
Each block holds one molecule with its values, some of them ahead of it.

How the values were obtained:
human 5LOX = molecular target: T1, human 5LOX (Homo sapiens, UniProt P09917); assay: Microtiter plate binding of SOD1 to immobilized 5LOX; conditions: Scatchard analysis, estimate
T1 construct: purchased Cayman Chemical
T1 sequence (P09917 1-674): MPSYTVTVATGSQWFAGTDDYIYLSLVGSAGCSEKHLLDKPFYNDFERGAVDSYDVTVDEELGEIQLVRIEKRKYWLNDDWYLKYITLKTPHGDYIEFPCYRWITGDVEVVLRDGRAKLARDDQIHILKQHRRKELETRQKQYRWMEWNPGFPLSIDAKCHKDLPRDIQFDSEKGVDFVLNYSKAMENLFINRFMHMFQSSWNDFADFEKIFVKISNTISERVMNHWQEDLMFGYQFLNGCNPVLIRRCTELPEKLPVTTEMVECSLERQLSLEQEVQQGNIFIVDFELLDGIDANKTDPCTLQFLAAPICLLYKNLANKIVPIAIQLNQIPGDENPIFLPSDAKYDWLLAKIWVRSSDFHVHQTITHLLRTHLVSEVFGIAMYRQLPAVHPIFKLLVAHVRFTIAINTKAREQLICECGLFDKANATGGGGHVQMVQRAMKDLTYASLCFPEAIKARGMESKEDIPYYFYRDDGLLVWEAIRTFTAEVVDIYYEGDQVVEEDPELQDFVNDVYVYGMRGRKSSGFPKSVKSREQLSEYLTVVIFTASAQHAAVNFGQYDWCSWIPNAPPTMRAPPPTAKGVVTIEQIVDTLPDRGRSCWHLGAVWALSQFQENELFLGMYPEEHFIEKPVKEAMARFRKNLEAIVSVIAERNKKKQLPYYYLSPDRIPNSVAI
Experimental: In order to circumvent these limitations of the BIAcore technique, a conceptually different strategy was employed to assess SOD1 binding to immobilized 5LOX. Standard 96 well polypropylene microtiter plates were coated with 5LOX by overnight incubation with the protein, which allows adsorption of the 5LOX through mostly hydrophobic interactions with the plate surface. As a control, half of each microplate was coated with BSA. The entire plate was then blocked with BSA, and subsequently incubated for 1 H with various concentrations of SOD1 dissolved in physiologic saline. Binding of SOD1 to the 5LOX-coated (or BSA-coated) microplate wells was quantified using alkaline phosphatase-conjugated anti-SOD1 polyclonal IgG, and p-nitrophenol as the chromophore. FIG. 15 illustrates preliminary binding data obtained from this experiment. SOD1 bound strongly to 5LOX-coated microplates but not to BSA-coated surfaces. […] Experiments may also be conducted to assess differences in 5LOX binding to wild-type versus mutant SOD1.

human wild-type SOD1 = molecular target: T2, human wild-type SOD1 (Homo sapiens, UniProt P00441); assay: BIAcore binding of 5LOX to immobilized SOD1; conditions: preliminary Scatchard analysis, upper bound
T2 construct: purified to homogeneity from human erythrocytes; from tissue; host or cells: human erythrocytes
From the text: Using several techniques that allow the study of protein-protein binding interactions in vitro, the interaction of SOD1 with 5LOX may be investigated. One approach involves the use of BIAcore instrumentation (Amersham-Pharmacia, Upsala, Sweden). The BIA (biomolecular interaction analysis) system consists of a solid-phase support upon which a protein (the ligand) can be covalently immobilized. This surface is placed in contact with a microfluidic cartridge, which dispenses a second protein (the analyte) across the binding surface. Adherence of the analyte to the immobilized ligand is measured by surface plasmon resonance (SPR) spectrometry. The surface plasmon resonance detector responds to refractive index changes in the vicinity of the sensor surface as the immobilized species interacts with its binding partner in the fluid phase. Data output from the BIAcore instrument takes the form of “sensorgrams” (FIG. 14A). Sensorgrams can be interpreted qualitatively, to assess whether a nonspecific binding event occurs, or quantitatively, in order to measure binding affinity.
In a previous experiment, human wild-type SOD1 (purified to homogeneity from human erythrocytes) was covalently immobilized to the BIAcore chip via surface lysine residues, using standard carbodiimide coupling chemistry. […] Experiments to quantitate the binding affinity are conducted. […]

T2 sequence (P00441 2-154 limits assumed): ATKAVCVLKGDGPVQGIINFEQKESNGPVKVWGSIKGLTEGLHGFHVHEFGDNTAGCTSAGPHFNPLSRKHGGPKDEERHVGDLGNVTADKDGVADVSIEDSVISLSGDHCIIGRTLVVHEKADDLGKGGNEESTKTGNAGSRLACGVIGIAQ

- Kd (human 5LOX): 1.4 µM
Molecule: SOD1: Cu, Zn-superoxide dismutase, binding partner of 5LOX

- Kd (human wild-type SOD1): ≤ 20 µM
B1: 5LOX: Human recombinant 5LOX (Cayman Chemical) (protein, UniProt P09917 1-674, looked up)
Polyunsaturated fatty acid …: T1 sequence (P09917 1-674)
